Results published in the supplement of paper PMC9112550, “Optimization of the antimicrobial peptide Bac7 by deep mutational scanning” (BMC Biology, 2022).

Test system: Escherichia coli TOP10
Test: shrunken log2 fold change of peptide-encoding DNA abundance (4.5 h post-induction vs induction); higher = less antimicrobial activity (less host growth inhibition)
Conditions: time post-induction: 4.5 h; library: site-saturation at positions 5, 18, 19, 20
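Further: peptides expressed intracellularly from a pBAD plasmid library in pooled LB shake-flask culture, induced with 0.3% L-arabinose, DNA abundance read by NGS, three biological replicates, DESeq2 with apeglm shrinkage.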

Going from RRIRGRPPRLPRPRPRPMRCPRP to RRIRYRPPRLPRPRPRPPKEPRP, the “shrunken log2 fold change” value falls from 0.581 to -0.00185.

RRIRCRPPRLPRPRPRPMACPRP and RRIRSRPPRLPRPRPRPCDLPRP are within 0.2 log units of each other in “shrunken log2 fold change” value: 0.00876 for the first, -0.144 for the second.

RRIRERPPRLPRPRPRPHTPPRP and RRIRDRPPRLPRPRPRPEKEPRP are within 0.2 log units of each other in “shrunken log2 fold change” value: 0.229 for the first, 0.127 for the second.

First: RRIRLRPPRLPRPRPRPGLHPRP
Second: RRIRVRPPRLPRPRPRPKMPPRP
The “shrunken log2 fold change” value of the first is lower: -0.401 for the first, -0.0804 for the second.

RRIRERPPRLPRPRPRPCFEPRP and RRIRYRPPRLPRPRPRPWPFPRP are within 0.2 log units of each other in “shrunken log2 fold change” value: -0.258 for the first, -0.218 for the second.

Compared with RRIRERPPRLPRPRPRPQSAPRP, RRIRMRPPRLPRPRPRPQQVPRP is higher in “shrunken log2 fold change” value: -0.227 for the first, 0.00763 for the second.

RRIRMRPPRLPRPRPRPLNYPRP and RRIRRRPPRLPRPRPRPCNSPRP are within 0.2 log units of each other in “shrunken log2 fold change” value: -0.124 for the first, 0.00408 for the second.

Compared with RRIRPRPPRLPRPRPRPTRGPRP, RRIRTRPPRLPRPRPRPIMYPRP is lower in “shrunken log2 fold change” value: 0.543 for the first, -0.347 for the second.

Going from RRIRGRPPRLPRPRPRPRGTPRP to RRIRERPPRLPRPRPRPVWNPRP, the “shrunken log2 fold change” value falls from 1.16 to -0.165.

RRIRVRPPRLPRPRPRPQLFPRP and RRIRKRPPRLPRPRPRPCPTPRP are within 0.2 log units of each other in “shrunken log2 fold change” value: 0.229 for the first, 0.0658 for the second.

Compared with RRIRIRPPRLPRPRPRPCDHPRP, RRIRVRPPRLPRPRPRPPPWPRP is higher in “shrunken log2 fold change” value: -0.752 for the first, 0.758 for the second.

RRIRTRPPRLPRPRPRPAHHPRP and RRIRHRPPRLPRPRPRPQVQPRP are within 0.2 log units of each other in “shrunken log2 fold change” value: -0.0336 for the first, 0.0789 for the second.

Going from RRIRRRPPRLPRPRPRPYTPPRP to RRIRSRPPRLPRPRPRPCQCPRP, the “shrunken log2 fold change” value rises from -0.225 to 0.017.

RRIRMRPPRLPRPRPRPIMIPRP and RRIRIRPPRLPRPRPRPTYRPRP are within 0.2 log units of each other in “shrunken log2 fold change” value: -0.16 for the first, -0.0791 for the second.

First: RRIRHRPPRLPRPRPRPINNPRP
Second: RRIRRRPPRLPRPRPRPKDFPRP
The “shrunken log2 fold change” value of the first is lower: -0.7 for the first, -0.123 for the second.

First: RRIRQRPPRLPRPRPRPAISPRP
Second: RRIRTRPPRLPRPRPRPCWYPRP
The “shrunken log2 fold change” value of the first is lower: -0.292 for the first, 4 for the second.

Compared with RRIRNRPPRLPRPRPRPPCKPRP, RRIRERPPRLPRPRPRPNTVPRP is lower in “shrunken log2 fold change” value: 0.0896 for the first, -0.595 for the second.

First: RRIRLRPPRLPRPRPRPMASPRP
Second: RRIRKRPPRLPRPRPRPEGWPRP
The “shrunken log2 fold change” value of the first is lower: 0.0148 for the first, 1.46 for the second.

Going from RRIRVRPPRLPRPRPRPLTRPRP to RRIRTRPPRLPRPRPRPVGGPRP, the “shrunken log2 fold change” value rises from 0.196 to 0.837.

RRIRNRPPRLPRPRPRPTLRPRP and RRIRCRPPRLPRPRPRPVARPRP are within 0.2 log units of each other in “shrunken log2 fold change” value: 0.334 for the first, 0.255 for the second.

Going from RRIRYRPPRLPRPRPRPVWHPRP to RRIRARPPRLPRPRPRPYLHPRP, the “shrunken log2 fold change” value falls from -0.0131 to -1.18.

Going from RRIRDRPPRLPRPRPRPYRPPRP to RRIRCRPPRLPRPRPRPYLNPRP, the “shrunken log2 fold change” value falls from -0.00509 to -1.32.

First: RRIRVRPPRLPRPRPRPAVIPRP
Second: RRIRKRPPRLPRPRPRPKTRPRP
The “shrunken log2 fold change” value of the first is lower: -0.0266 for the first, 0.444 for the second.

RRIRFRPPRLPRPRPRPMHMPRP and RRIRCRPPRLPRPRPRPQNSPRP are within 0.2 log units of each other in “shrunken log2 fold change” value: -0.011 for the first, -0.194 for the second.

Going from RRIRDRPPRLPRPRPRPNDSPRP to RRIRDRPPRLPRPRPRPSWWPRP, the “shrunken log2 fold change” value rises from -0.134 to 0.276.

Going from RRIRPRPPRLPRPRPRPNLDPRP to RRIRCRPPRLPRPRPRPGPWPRP, the “shrunken log2 fold change” value rises from 0.109 to 0.422.

First: RRIRHRPPRLPRPRPRPWEKPRP
Second: RRIRWRPPRLPRPRPRPIASPRP
The “shrunken log2 fold change” value of the first is lower: -0.359 for the first, 0.104 for the second.

RRIRTRPPRLPRPRPRPFQVPRP and RRIRARPPRLPRPRPRPFTAPRP are within 0.2 log units of each other in “shrunken log2 fold change” value: -0.0305 for the first, -0.111 for the second.

Compared with RRIRQRPPRLPRPRPRPTQDPRP, RRIRIRPPRLPRPRPRPCLFPRP is lower in “shrunken log2 fold change” value: 0.508 for the first, -0.639 for the second.

RRIRLRPPRLPRPRPRPMMWPRP and RRIRQRPPRLPRPRPRPPNLPRP are within 0.2 log units of each other in “shrunken log2 fold change” value: 0.148 for the first, -0.00283 for the second.

Going from RRIRQRPPRLPRPRPRPPQNPRP to RRIRGRPPRLPRPRPRPCYVPRP, the “shrunken log2 fold change” value falls from 0.663 to -0.0858.

RRIRFRPPRLPRPRPRPQFWPRP and RRIRMRPPRLPRPRPRPIQKPRP are within 0.2 log units of each other in “shrunken log2 fold change” value: 0.206 for the first, 0.0394 for the second.

RRIRSRPPRLPRPRPRPKWKPRP and RRIRLRPPRLPRPRPRPNFLPRP are within 0.2 log units of each other in “shrunken log2 fold change” value: -0.0184 for the first, -0.153 for the second.

Going from RRIRYRPPRLPRPRPRPCFDPRP to RRIRERPPRLPRPRPRPVQIPRP, the “shrunken log2 fold change” value rises from -0.808 to 0.27.

Compared with RRIRMRPPRLPRPRPRPHQVPRP, RRIRMRPPRLPRPRPRPQINPRP is lower in “shrunken log2 fold change” value: 0.423 for the first, -0.0723 for the second.

Compared with RRIRGRPPRLPRPRPRPNTVPRP, RRIRERPPRLPRPRPRPWNCPRP is lower in “shrunken log2 fold change” value: -0.0703 for the first, -0.327 for the second.

RRIRKRPPRLPRPRPRPNLEPRP and RRIRNRPPRLPRPRPRPDWPPRP are within 0.2 log units of each other in “shrunken log2 fold change” value: 0.185 for the first, 0.0862 for the second.

With RRIRVRPPRLPRPRPRPWRGPRP the “shrunken log2 fold change” value was 0.378.
